Data as given in the DeepSol protein solubility set.

Experiment: soluble on expression in E. coli; label from the status in PepcDB or PDB records

| Sequence | soluble on expression in E. coli |
| --- | --- |
| MFGKTLLRRIACSNLNLKSRKLSGKPRLAIVGSGPAGMFACNGLLRKSNFSVDVFENSPVPFGLVRYGVAPDHQEVKNVINTFDAMFEKNRERLKLFCNVNIGRDITFDELTRGYDAVLLAYGSYKTRTLDIPGSDASNVISGSEFVGWYNGVPNASTPDLTTSNVVIVGNGNVALDCARVLSTASSGLLRISDIPGDRLNVLEGANVKDIKILGRRGPEHVSFTIKELREQFKIKDWDSKLEISEIDAKNLTESLPKLERKKKRLTEVLVKNIGIANGLRQCHFIFHRIPEKIIADSNGKVQEIIVKNNETGQEETYPCGLLIYSIGYQTLVLDGVPQNDKKMIDMKDHCRVNMVAACSSQVYATGWCAHGPHGIIVDTQQQSIFVADQIAADFAQFKDSTSNGVEELLEDRKVPFISWDEWKQIDRQEQDTGKLSGKIREKFTTFEKFLTKLKKCN | not soluble |
| MFIESRELVMKHRIPVAKTERYWKGLEEGKVFKTVCKSCGKEHHPPRAECLCGGEVEWVEITGEGVVEAFTTVHTIPAGFEWHREPYTIAIARFGEVRVMGWAKEVRVGDVVRLKPGKDETGVWKVYFEVV | not soluble |
| MFIRGREMISAVIEALIGSISLSTGLHTKKIDANIRYLQQYEWFRIIYEDEKYRKLFITNYKVRSYLQSKLRVRLLVKNKNAQRRFLKLVEEQIEKRHTN | not soluble |
| MFKGIVQGAGIIKKISKNDDTQRHGITFPKDILESVEKGTVMLVNGCSLTVVRISGDVVYFDIDQAINTTTFRELEVGNKVNLEVRPEFGSLLGKGALTGNIKGVATVDNITEEEDRLKVYIKIPKDLIENILSEDHIGINGVSHSIEEISDDIIFINYPKNLSITTNLGTLEKGSDVNVETLNVSNEWD | soluble |
| MFKHIISCLLLISATSALAAEKPTLTVYTYDSFAADWGPGPAIKQAFEAECDCQLKFVALEDGVSLLNRLRMEGKNSQADVILGLDNNLVQAAEQTGLFTPSQVDTRNLTLPEPWQNKTFVPYDYGYFAFVYNKEKLKNPPKSLHELISSKEPWKVIYQDPRTSTPGLGLMLWMQKVYGDQAPQAWQQLAQKTVTVTKGWSEAYGLFLKGEADLVLSYTTSPAYHLIAEKNNNYAAADFSEGHYLQVEVAGQLAASKQPELAQRFMQFIVTPAFQNHIPTGNWMYPVIKMDLPAGFETLAVPQTALQFDAKDVADNRSKWIQAWQSAVSR | not soluble |
| MFKKEKGGWFYMAGLKVEWNDWCPGCGNFGILSAEQQAIQELGLDPKKVVLVSGIGCSGKIPHFIRLPASGVHTLHGRALTFAIGIKLANPSLEVIVNGGDGDQLGIGVGHFVSAGRRNVDLTVIVHNNGVYGLTKGQASPTLKLGVKTKSLPKPNINSDINPIALAISSGYTFVARGYAYDVKHLKEIIKKAIKHKGLAMIDVLQPCPTYNDIHTKEYYDKRVYKLDEDPSWDPIVKKPEEMDDKMSKAILKSMEWGDRIPIGIFYQNELVSTYEQRIAERSPSYLDNPPAHDVIEFEGKPTTDVEDILKERRVT | not soluble |
| MFKQFIEDAKSIAERDPAATSVLEVIFLYSGFHAVCLHRIAHWFYKRNMRFIARFISQLNRFLTGVEIHPGAKIGKGLFIDHGMGVVIGETAEVGDNCTIYHNVTLGGTGKDKGKRHPTIGNNVLISTGAKVLGPFKVGDNSRIGANAVVLNEVEPNTTVVGVPGRAVKRGNQKIVPSIELDQIHIPDPVAQELCRIKQRLESLEKELMEMRRASQGSNVQEPVPQEKSCEEECKLEMGKEIADNETL | not soluble |
| MFMKYALFPGCKIAFERPDLELAMREVLTALDVPFEYLSDFSCCPTWASVPSFDIEAWLAISARNISLAEEKGLDIVVGCGDCYSVLNHARDMLKREEWRERVNRILAKVGRVYRGTTKIYHIIHLLEERKIKKNLKHRLNGFVAGVQPGCHLLWPAKIFDAKEENPFFPERLKKLVEAMGAETPHYSRLEYCCGNHIDIVDYEKFLDFVQLKLQSLKEEIDPDFIVTACSTCFIQLDEGQKRLKRLGRIDYEIPVFHFPQLLAICLGSNPEKVARISSVDRSKIISEILEGRE | not soluble |
| MFNDLESKLQSLLERNITSVLELENWLFDELRVNAEIEEKITSSLIATYRDTDNRNMRDLHMYNQNTIQPLLKRYNAKFDQKFIECPFSNLLDERKYEFMKKARFVKSKMFNEKNIALSIKGQECITKYREIMSNITINWEGEQKTYAHVKAKLDNPNRAIRKKAWYALCEARSVVKPEVDRIMNELIQLRNEIALNAGFNNYSEYAFKQKNRDYSIDDCYKLHESIEKYVVPIWKQLGSISKKNLDVKTYRPWDLSPCNLPKAPFQNAINLLDGVEEMFRTTDLYFYEKFIHIRKAGCIDVEERENKAAGAICFTLPHSKEVFVYSNFSPSFYAINALIHEVGHAFHFYKQFKNDSSMQERYLREEVAELYSLSLELLVMDKLNVFYKQEDEYKEVQRVQIYRALSLLMSSIAGDVFQHWIYENPNHTPEERDKKYAEICKRYQYSTVDIAGLEDEIGASWIESFHYVQFPFYKIEYAIAQIGAMQLFQIYWEDPEKAIDFFKEGASADWNLSIQEIYEKTGVTFDFSEERIESTASVILDLINELK | not soluble |
| MFNKLSTPIHIIGGGLAGCEASWQIAQSGIPVILHEMRPQKKSEAHKTGQLAELVCSNSFRSDDSSTNAVGLLHTEMRLAKSLIMKAADANKVPAGSALAVDRDGFSKTVTAALENHPLITIKREEIQEIPENWPHIIIATGPLTSPKLAKAIQTITGTEALSFFDAIAPIIYTDSINMDICWYQSRYDKIGPEGTGKDYLNCPLNKEQYEAFVQALKNAEKTEFRDFEKTPYFDGCLPIEVMAERGLETLRHGPMKPMGLTNAHNPTVKAYAVVQLRQDNKLGTLYNMVGFQTKLKYGEQVRIFRMIPGLENAEFARLGGLHRNTYLNSPIILDQTLRLKQRPGLRFAGQITGCEGYVESSAIGLLAGRFAAAEYHYNCPCLPPLTTALGLEHHHHHH | soluble |
| MFRAGEASKRPLPGPSPPRVRSVEVARGRAGYGFTLSGQAPCVLSCVMRGSPADFVGLRAGDQILAVNEINVKKASHEDVVKLIGKCSGVLHMVIAEGVGRFESCSSDEEGGLYEGKGWLKPKLDSKALGINRAERVVEEMQSGGIFNMIFENPSLCASNSEPLKLKQRSLSESAATRFDVGHESINNPNPNMLSKEEISKVIHDDSVFSIGLESHDDFALDASILNVAMIVGYLGSIELPSTSSNLESDSLQAIRGCMRRLRAEQKIHSLVTMKIMHDCVQLSTDKAGVVAEYPAEKLAFSAVCPDDRRFFGLVTMQTNDDGSLAQEEEGALRTSCHVFMVDPDLFNHKIHQGIARRFGFECTADPDTNGCLEFPASSLPVLQFISVLYRDMGELIEGMRARAFLDGDADAHQNNSTSSNSDSGIGNFHQEEKSNRVLVVDLGGSSSRHGPGGSAWDGVGGRGAQPWGAPWTGPFCPDPEGSPPFEAAHQTDRFWDLNKHLGPASPVEVPPASLRSSVPPSKRGTVGAGCGFNQRWLPVHVLREWQCGHTSDQDSYTDSTDGWSSINCGTLPPPMSKIPADRYRVEGSFAQPPLNAPKREWSRKAFGMQSIFGPHRNVRKTKEDKKGSKFGRGTGLTQPSQRTSARRSFGRSKRFSITRSLDDLESATVSDGELTGADLKDCVSNNSLSSNASLPSVQSCRRLRERRVASWAVSFERLLQDPVGVRYFSDFLRKEFSEENILFWQACEYFNHVPAHDKKELSYRAREIFSKFLCSKATTPVNIDSQAQLADDVLRAPHPDMFKEQQLQIFNLMKFDSYTRFLKSPLYQECILAEVEGRALPDSQQVPSSPASKHSLGSDHSSVSTPKKLSGKSKSGRSLNEELGDEDSEKKRKGAFFSWSRTRSTGRSQKKREHGDHADDALHANGGLCRRESQGSVSSAGSLDLSEACRTLAPEKDKATKHCCIHLPDGTSCVVAVKAGFSIKDILSGLCERHGINGAAADLFLVGGDKPLVLHQDSSILESRDLRLEKRTLFRLDLVPINRSVGLKAKPTKPVTEVLRPVVARYGLDLSGLLVRLSGEKEPLDLGAPISSLDGQRVVLEEKDPSRGKASADKQKGVPVKQNTAVNSSSRNHSATGEERTLGKSNSIKIKGENGKNARDPRLSKREESIAKIGKKKYQKINLDEAEEFFELISKAQSNRADDQRGLLRKEDLVLPEFLRLPPGSTELTLPTPAAVAKGFSKRSATGNGRESASQPGEQWEPVQESSDSPSTSPGSASSPPGPPGTTPPGQKSPSGPFCTPQSPVSLAQEGTAQIWKRQSQEVEAGGIQTVEDEHVAELTLMGEGDISSPNSTLLPPPSTPQEVPGPSRPGTSRF | soluble |
| MFRGIVQGRGVIRSISKSEDSQRHGIAFPEGMFQLVDVDTVMLVNGCSNTVVRILGDMVYFDIDQALGTTTFDGLKEGDQVNLEIHPKFGEVVGRGGLTGNIKGTALVAAIEENDAGFSVLIDIPKGLAENLTVKDDIGIDGISLPITDMSDSIITLNYSRDLLASTNIASLAKDVKVNVEILNEW | soluble |
| MFRLSALYRYPIKSSAAESLERVALDALGVVGDRRWMAVDTETGRFFTQRLLPQLGRIQARWAAPEVLRLNAPGMSELSLEVPAADANLRGVTVWRDTLQAPDAGDAAADWLTRFLGRPTRLVHIPEARARQVDTGYAEPGQKVHFADGFPLLLIGQASLDDLSQRVGRPLEMLRFRPNLVVEGSAAFAEDGWKRIRIGSVEFVVAKPCSRCILTTLDPATGERNEDREPLTTLKTYREKDGAVLFGQNLIALGQGSLEVGMPVEILD | soluble |
| MFRVTCIDLENGEFALYINGHYLSSEDGSGEKLYLGDILERLSRLPGVTTETVERPVPDSDEWSWNDVADSVFPACITLSRNMTVAAFKQRLSRFPDDALCCGTFWLASDFLALDSSLTEDDIDAAMELAQHCHDANDGFNWSHLQWAIDEVKRGG | not soluble |
| MFSCISPQKSPAFSPEQEKMLKSNRANEPQSFVKGNDAAKSDLIDLEEVVTNWAKTMFDVTKSKAEGKIKKKYLSYNINWTKLFQECSEPTYTILGAKPNVVDAKQDEKVIFKTTFTNTTQREQEYSFKTERCTRSSSTVIIEKGVCRGAEVSLKLKTPCEVVEANAGFTTEVMLNHIGENTSEEELTWGVDSCVKVPPGAETVAELVIIEDIVTRDFRIENRLSGKVLVTITNLKENNSLVTIIEGNICDIIRGMPDYTAKGFRFDGPAAIYETRGQCIFRFGIEQKVRINEFSLNSSRRY | not soluble |
| MFTGIIEETGTIESMKKAGHAMALTIKCSKILEDVHLGDSIAVNGICLTVTDFTKNQFTVDVMPETVKATSLNDLTKGSKVNLERAMAANGRFGGHFVSGHVDGTAEITRIEEKSNAVYYDLKMDPSLTKTLVLKGSITVDGVSLTIFGLTEDTVTISLIPHTISETIFSEKTIGSKVNIECDMIGKYMYRFLHKANENKTQQTITKAFLSENGF | soluble |
| MFTKSGDDGNTNVINKRVGKDSPLVNFLGDLDELNSFIGFAISKIPWEDMKKDLERVQVELFEIGEDLSTQSSKKKIDEKYVKWLEERTVEYRKESGPVKLFVIPGGSEEASVLHVTRSVARRVERNAVKYTKELPEINRMIIVYLNRLSSLLFAMALVANKRRNVSEKIYDIGKFW | soluble |
| MFTYSLNLKLKTDRNFFGPGVVEVLQKIQQTGSLNLAAKEMKMSYNKAWRIVRVAEEELSFPLIIKSVGGCNGGGSIVTDQGKELIDQYLLFEKKVYQQVEACFEEIFKEQDVVSEELK | not soluble |
| MFVRTAVVLLLVASTAYTFVAPPSQATLACITCVATVKGVEAKMLHEGGNVAKHDVDAICLKEVPTHSAEHLCEEYGEHEVDVMVTLIKQDVPPKMICQELQKC | not soluble |
| MFYITSKKVPFVTYSKNVFIPVTNICRNQCGYCGFRREPGQPGARLMKPEEVISVLENGVRAGCTEALFTFGERAEEVPGYGEMLEEIGYSSTLEYLVFLCETAIDIGILPHTNAGIMTRSELEALKPLNASMGLMLESTAVLAAHKDCPGKIPERRLETIREAGKLKIPYTTGLLIGIGESRDDRIESLEAIAALHREYGHIQEVIIQNFAPKPGTEMENFPEPAVEEMMDSVELAARILPGDVAVQVAPNLIDPKSLIAKGVTDLGGISPLTIDWINPEAEWPDVKNLQKKLGDIPLKERLPVYPPYVKKGWYSERIGSLIKRLSDNSGYLEHHHHHH | not soluble |
